B1: Anti-CD117 VHH P10 (monovalent form) (VHH)
VHH: QVQLVESGGGLVQAGGSLRLSCVASGRTFSSYAMGWFRQGPGKEREFAAAILSNGLTTYYADSVKGRFTISRDNAKDTVYLQMNSLKPEDTANYYCAAAFTPEFRDGGIWDDASVDYWGQGTQVTVSS
notes: Secreted from Expi293 cells
B2: Anti-CD117 VHH P38 (monovalent form) (VHH)
VHH: EVQLVESGGGLVQAGGSLRLSCAASGRTSGSYVMGWFRQAPGKEREFVAAISWSAGMTYYADSVKGRFTISRDNAKNTVYLQMNSLKPEDTAVYYCAADQRGVPAYYSDYALYDYWGQGTQVTVSS
B3: Anti-CD117 VHH P12 (monovalent form) (VHH)
VHH: QVQLVESGGGLVQAGGSLRLSCTASGDTFSSYSMGWFRQGPGKEREFVGGIRWSGGTTYYADSVKGRFTISRDNAKNTVYLQMNSLKREDTAVYYCAAVRRRWLIWQEEEYDYWGQGTLVTVSS
notes: Secreted from Expi293 cells
B4: Anti-CD117 VHH P31 (monovalent form) (VHH)
VHH: EVQLVESGGGLVRAGGSLRLSCAASGRTFTYDARAWFRQAPGKEREFVAAISWSGGSTYYPNSMKGRFTISRDNAKNTVYLQMNSLKPEDTAVYYCAADESFPAYYSDYALYRYWGQGTLVTVSS
notes: Secreted from Expi293 cells
B5: Anti-CD117 VHH P27 (monovalent form) (VHH)
VHH: EVQLVESGGGLVRAGGSLRLSCAASGRTTFSTYWLGWFRQAPGKNREFVAAISWSAGMAYYQDSKGRFTISRDNTKNTAYLQMNSLQPEDTAVYYCAAGRFHPIRVDTALYWAQGTQVTVSS
notes: Secreted from Expi293 cells
B6: Anti-CD117 VHH P29 (monovalent form) (VHH)
VHH: QVHLVESGGGLVQAGGSLGLSCAASGHTFSNYAMGWFRQAPGKEREFVAAISWSGGSTLYADSVKGRFTISRDNGENTVYLQMNSLKPEDTAVYYCALDSTGVYGTGYVSSRKGRYEYWGQGTLVTVSS
notes: Secreted from Expi293 cells
B7: Anti-CD117 VHH P35 (monovalent form) (VHH)
VHH: QVQLVESGGGLVQAGGSLRLSCAASGGTFSIYPVGWFRQAPGKQREFVAAIGWSASGTYYGDSVEGRFTVSRDNARSTVYLRMSSLKPDDTAVYYCAAASGSNWRLGAIDEYDSWGQGTQVTVSS
notes: Secreted from Expi293 cells

biological target: T1, Cell surface CD117 on CD117+ cells (SKMEL / SKMEL-3 cells, CD34+ cells / HSPCs, Kasumi-1 cells) (UniProt P10721 26-976, limits assumed); experiment: flow cytometry on SKMEL cells and CD34 cells (both CD117+)
T1 construct: whole, on cells; also called cKIT; C-kit
T1 sequence (P10721 26-976 limits assumed): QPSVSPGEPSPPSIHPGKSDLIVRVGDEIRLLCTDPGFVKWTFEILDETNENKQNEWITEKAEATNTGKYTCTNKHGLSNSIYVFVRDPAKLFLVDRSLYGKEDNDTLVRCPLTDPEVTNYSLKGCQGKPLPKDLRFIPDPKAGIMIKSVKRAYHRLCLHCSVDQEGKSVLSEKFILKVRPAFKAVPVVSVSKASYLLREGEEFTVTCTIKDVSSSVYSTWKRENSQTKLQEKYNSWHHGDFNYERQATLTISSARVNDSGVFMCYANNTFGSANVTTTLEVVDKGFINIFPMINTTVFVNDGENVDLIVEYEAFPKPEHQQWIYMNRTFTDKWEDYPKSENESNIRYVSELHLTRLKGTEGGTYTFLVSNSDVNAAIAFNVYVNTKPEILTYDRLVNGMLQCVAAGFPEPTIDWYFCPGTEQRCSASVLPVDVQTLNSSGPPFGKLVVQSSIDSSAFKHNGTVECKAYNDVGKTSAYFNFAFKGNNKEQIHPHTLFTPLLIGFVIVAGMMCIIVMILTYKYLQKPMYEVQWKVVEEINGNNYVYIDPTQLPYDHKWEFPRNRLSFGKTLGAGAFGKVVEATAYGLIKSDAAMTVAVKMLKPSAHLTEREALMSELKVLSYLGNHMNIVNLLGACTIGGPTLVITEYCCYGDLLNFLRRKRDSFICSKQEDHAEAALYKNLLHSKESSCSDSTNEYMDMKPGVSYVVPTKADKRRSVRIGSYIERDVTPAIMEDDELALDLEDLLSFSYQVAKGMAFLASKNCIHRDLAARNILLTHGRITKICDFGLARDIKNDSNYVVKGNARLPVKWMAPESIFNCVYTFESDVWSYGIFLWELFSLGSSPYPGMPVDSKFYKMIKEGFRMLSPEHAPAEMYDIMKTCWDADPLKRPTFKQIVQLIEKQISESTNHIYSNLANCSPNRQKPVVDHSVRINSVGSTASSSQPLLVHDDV

binding result | Binder
binds | B1
binds | B2
binds | B3
binds | B4
binds | B5
binds | B6
binds | B7

— patent publication US20260137783A1 (CRISPR THERAPEUTICS, published 2026)
